{"source": "paper PMC7108782", "about": "“Direct interaction of metastasis-inducing S100P protein with tubulin causes enhanced cell migration without changes in cell adhesion” (Biochemical Journal, 2020)", "molecules": {"B1": {"name": "S100P: recombinant or doxycycline-induced overexpressed S100P protein (protein)", "chain": "MTELETAMGMIIDVFSRYSGSEGSTQTLTKGELKVLMEKELPGFLQSGKDKDAVDKLLKDLDANGDAQVDFSEFIVFVAAITSACHKYFEKAGLK"}}, "key": {"[1]": {"test_system": "tubulin polymerisation in HeLa-A19 cells", "test": "In vivo tubulin polymerisation assay, HeLa / HeLa-A19", "format": "cell-based, human", "conditions": "HeLa-A19, 4 h after second release, 1 µg/ml doxycycline", "protocol": "HeLa and S100P-inducible HeLa, COS-7 and S100P-inducible COS-7 cells were routinely cultured with or without doxycycline (1 µg/ml) and treated with 33 µM nocodazole for 24 h to synchronise the cells. Then the nocodazole was washed away (First release) and the synchronised cells were cultured in normal medium for 4 h to allow them to complete cell division. The nocodazole was then added again for 4 h to dissociate all the MTs. After this time, nocodazole was again removed by extensive washings (Second release) and tubulin was allowed to polymerise in the interphase of the cell cycle for different times. The cells were treated with buffer (10 mM Tris–HCl, 150 mM KCl, pH 7.4, 2% (v/v) Triton X-100) and the Triton-X100-insoluble tubulins (representing the newly formed MTs) were solubilised in Sample Buffer and quantified by Western blotting. To test the effect of tubulin-derived peptides, 20 µM T-DIC, T-DLV, T-IMN and tag-peptide alone (Supplementary Table S3) in 0.25% (v/v) DMSO as solvent, as well as the solvent control 0.25% (v/v) DMSO were added immediately after the second release in Sample Buffer and quantified at the different time points by Western blotting."}, "[2]": {"test_system": "COS-7 S10 cells", "test": "Boyden chamber cell migration, S100P-inducible COS-7", "format": "cell-based, monkey", "conditions": "24 h", "from_the_text": "(§1) Cell migration rate (%) = M/G × 100."}, "[3]": {"test_system": "Rama 37-T25 cells", "test": "S100P-enhanced cell migration, Rama 37-T25", "format": "cell-based, rat", "conditions": "Rama 37-T25, doxycycline 1 µg/ml, 24 h", "from_the_text": "as §1"}, "[4]": {"test_system": "α and β-tubulin subunits and half molecules", "test": "Gel overlay assay", "format": "binding, human", "conditions": "3 µg/ml S100P, 1 μM proteins, 4°C overnight", "protocol": "The coding sequences for full length (human) α-tubulin and for N-terminal and C-terminal halves of α or β-tubulin were generated using PCR with specific primers shown in Supplementary Table S1 and sub-cloned into pET16(b) for expressing and purifying His-tagged full-length α-tubulin and His-tagged tubulin fragments in E. coli, as described previously. β-tubulin was purchased from Abcam.\nEqual molar proteins (1 μM) were subjected to SDS PAGE on 10% (w/v) polyacrylamide gels. One gel was stained with Coomassie Blue to check equal loading and the other electroblotted onto PVDF membrane. Three µg/ml S100P in Gel Overlay Buffer were added to the membrane and the contents incubated at 4°C overnight. After extensive washing, the presence of bound S100P was probed with mouse anti-S100P as described for Western blotting."}, "[5]": {"test_system": "α, β-tubulins", "test": "Pulldown assay, His-S100P beads with COS-7 cell lysates", "format": "binding, monkey", "conditions": "1 mM CaCl2 vs EGTA", "protocol": "[…] After brief sonication, the lysates were centrifuged at 15,000g for 30 min to remove insoluble components. The supernatants were then applied to His-S100P columns or control column with His-binding beads only. After extensive washings with 10 mM Tris–HCl, pH 7.4, 150 mM NaCl, 0.5% (v/v) Tween 20, the bound proteins were eluted with 300 mM imidazole and then subjected to Western blotting using mouse anti-S100P mAb and anti-tubulin antibodies (R&D Systems, Abingdon, U.K.)."}, "[6]": {"test_system": "tubulin", "test": "Co-immunoprecipitation, COS-7 S10 lysates", "format": "binding, monkey", "conditions": "S100P-induced COS-7 S10 lysates, 0.5 mM CaCl2", "protocol": "For co-immunoprecipitations, S100P-inducible COS-7 cells were incubated with 1 µg/ml doxycycline for 16 h and lysed in RIPA buffer (Thermo Fisher Scientific, Loughborough, U.K.) with 0.5 mM CaCl2. After sonication and centrifugation as described above, control antibody (rabbit IgG from Sigma), anti-tubulin or anti-S100P were added to three separate tubes containing 0.7 ml each of cell lysate and incubated overnight at 4°C. Then 100 µl Dynabeads® ProteinG (Thermo Fisher Scientific) were added to each tube and the contents incubated for 4 h at 4°C. After extensive washings with washing buffer (10 mM Tris–HCl, pH 7.4, 150 mM NaCl, 1% (v/v) Triton X-100, 0.2 mM sodium orthovanadate), the bound proteins were eluted with 0.1 M glycine pH 2.5 and then subjected to Western blotting using the paired antibodies together with a sample of the input and the last wash."}, "[7]": {"test_system": "HeLa-A3 cells", "test": "Cell adhesion assays, HeLa-A3", "format": "cell-based, human", "conditions": "HeLa A3, S100P induced vs uninduced, weak trypsin digestion, n = 3", "protocol": "(§2) For kinetics of attachment either HeLa-A3 or COS-7 S10 cells were induced with 1 µg/ml doxycycline 48 h prior to experiment and 2 × 10^5 uninduced or induced cells in 1 ml were added to 24 well tissue culture dishes and allowed to adhere at 37°C. At the given time (30 min to 2 h) cells were washed 2× with PBS and detached with 250 µl 0.05% (w/v) trypsin in versene for 5 min at 37°C, neutralised in serum-containing media (SCM), counted and the percent of seeded cells recorded. For strength of adhesion, the same cells were seeded in 24 well tissue culture dishes so as to yield 80% confluence in 24 h. In all cases identical dishes were set up for test and control. After 24 h, wells were washed 2× and detached with 250 µl, 0.0125% (w/v) trypsin in versene for 5 min at 37°C. Wells were then carefully washed 2× to remove weak binders. Trypsin in versene (250 µl of 0.05% (w/v)) was then added to both test dish and control dish for 5 min to remove all cells from the well, neutralised with SCM and counted. The proportion of cells remaining after the weak digestion step was determined from the ratio of results from test and control plates. All assays were performed in triplicate."}, "[8]": {"test_system": "COS-7 S10 cells", "test": "Cell adhesion assays, COS-7 S10", "format": "cell-based, monkey", "protocol": "as §2"}, "[9]": {"test_system": "COS-7 cells", "test": "Living colour expression: YFP-S100P with CFP-EB3", "format": "cell-based, monkey", "conditions": "high YFP-S100P, 24 h", "protocol": "S100P fused to yellow fluorescent protein (YFP), and EB3 fused to cyan fluorescent protein (CFP) (EB3-CFP) expression plasmids, pYFP-S100P and pCFP-EB3 were constructed, respectively. COS-7 cells were transiently transfected with the two plasmids and images were recorded using a LSM 5 confocal microscope 24 h after transfection. CFP: excitation = 436 nm, emission = 480 nm; YFP: excitation = 500 nm, emission = 520 nm."}}, "note": "Values joined by “and” are separate entries in the source; they are usually repeats but may differ in a detail not shown here. Identical values can stand only once.", "data": [{"molecule": "B1", "values": [{"measurement": "reduction in tubulin polymerisation on S100P induction", "setting": "[1]", "result": "31% and ~30%"}, {"measurement": "S100P-enhanced cell migration", "setting": "[2]; COS-7 S10, doxycycline 1 µg/ml", "result": "2–3 folds"}, {"measurement": "fold increase in relative cell migration rate on S100P induction", "setting": "[2]; three inducible COS-7 lines S7, S10, S23, 1 µg/ml doxycycline", "result": "2.5 to 2.9", "unit": "fold"}, {"measurement": "S100P-enhanced cell migration", "setting": "[3]", "result": "3–4 folds"}, {"measurement": "binding of S100P to tubulin subunits and half molecules", "setting": "[4]", "result": "interacted with both α and β-tubulin subunits and with all four half molecules"}, {"measurement": "α, β-tubulins captured by His-S100P", "setting": "[5]", "result": "detected in eluates, but only when 1 mM CaCl2 but not EGTA was originally present"}, {"measurement": "complex with tubulin in immunoprecipitates", "setting": "[6]", "result": "immunoprecipitates produced with anti-S100P also contained tubulin"}, {"measurement": "fold decrease in strength of adhesion", "setting": "[7]", "result": 1.58, "unit": "fold"}, {"measurement": "change in rate and strength of adhesion (in words)", "setting": "[8]; COS-7 S10, 1 µg/ml doxycycline, P ≥ 0.18", "result": "no significant decrease in the rate of adhesion (Supplementary Figure S1) or significant decrease in strength of adhesion"}, {"measurement": "change in strength of adhesion (in words)", "setting": "[8]; COS-7 S10, S100P induced vs uninduced, n = 3", "result": "significant change in the strength of adhesion upon induction of S100P (t = 0.6, P = 0.95, n = 3)"}, {"measurement": "distribution of peripheral MTs", "setting": "[9]", "result": "more dispersed distribution of cyan-labelled peripheral MTs"}]}]}
